The target in test [1] is recombinant human CD32a (human) (UniProt P12318).
A further test has as its target human C1q (human) (UniProt P02745).
Test [2] concerns the target recombinant human CD16a (human) (UniProt P08637).
The target in test [3] is recombinant human CD64 (human) (UniProt P12314).

As usually defined, the EC50 is the concentration at which the effect is half-maximal.

Chain of recombinant human CD16a (human) (P08637 17-208 limits assumed): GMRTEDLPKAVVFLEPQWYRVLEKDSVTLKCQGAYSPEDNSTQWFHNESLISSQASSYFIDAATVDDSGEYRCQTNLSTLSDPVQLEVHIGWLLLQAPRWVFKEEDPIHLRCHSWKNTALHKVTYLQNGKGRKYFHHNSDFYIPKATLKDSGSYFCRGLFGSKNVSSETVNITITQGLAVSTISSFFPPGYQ
Chain of human C1q (human) (P02745 23-245 limits assumed, chain 1 of 3): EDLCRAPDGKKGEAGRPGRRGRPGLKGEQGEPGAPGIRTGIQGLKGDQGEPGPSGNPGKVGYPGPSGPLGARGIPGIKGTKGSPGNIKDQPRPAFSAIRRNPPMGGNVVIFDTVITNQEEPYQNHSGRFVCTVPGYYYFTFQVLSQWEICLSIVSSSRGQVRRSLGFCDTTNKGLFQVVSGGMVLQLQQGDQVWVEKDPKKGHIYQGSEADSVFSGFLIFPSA
Chain of human C1q (human) (P02746 28-253 limits assumed, chain 2 of 3, further chain): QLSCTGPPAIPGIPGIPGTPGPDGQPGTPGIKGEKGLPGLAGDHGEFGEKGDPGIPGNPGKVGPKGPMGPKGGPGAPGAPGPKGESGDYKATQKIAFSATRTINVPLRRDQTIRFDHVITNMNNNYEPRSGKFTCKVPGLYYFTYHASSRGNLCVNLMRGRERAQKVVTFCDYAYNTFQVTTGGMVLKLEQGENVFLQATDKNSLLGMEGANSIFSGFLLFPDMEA
Chain of human C1q (human) (P02747 29-245 limits assumed, chain 3 of 3, further chain): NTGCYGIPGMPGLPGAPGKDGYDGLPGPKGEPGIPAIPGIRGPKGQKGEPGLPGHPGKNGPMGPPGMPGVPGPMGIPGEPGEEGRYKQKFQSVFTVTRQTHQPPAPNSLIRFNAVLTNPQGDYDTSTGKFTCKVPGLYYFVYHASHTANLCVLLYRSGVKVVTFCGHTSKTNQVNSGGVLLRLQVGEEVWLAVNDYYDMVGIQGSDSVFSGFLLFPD
Chain of recombinant human CD32a (human) (P12318 34-217): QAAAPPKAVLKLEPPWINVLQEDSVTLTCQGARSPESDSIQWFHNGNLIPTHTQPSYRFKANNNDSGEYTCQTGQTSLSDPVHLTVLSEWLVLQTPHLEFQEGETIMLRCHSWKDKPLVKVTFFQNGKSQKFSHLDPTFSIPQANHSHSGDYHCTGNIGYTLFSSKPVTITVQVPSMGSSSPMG
Chain of recombinant human CD64 (human) (P12314 16-288 limits assumed): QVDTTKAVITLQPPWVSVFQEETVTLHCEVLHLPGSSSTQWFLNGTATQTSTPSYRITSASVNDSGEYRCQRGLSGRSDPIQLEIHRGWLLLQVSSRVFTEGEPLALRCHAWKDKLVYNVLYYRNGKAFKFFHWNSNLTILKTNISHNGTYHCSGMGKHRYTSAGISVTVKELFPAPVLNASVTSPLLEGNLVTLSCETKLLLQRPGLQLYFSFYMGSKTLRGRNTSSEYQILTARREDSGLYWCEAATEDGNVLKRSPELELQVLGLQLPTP

Turning to isotype mAb with human IgG1 (antibody), the EC50 worked out at 14 nM in test [1], 14.1 nM with human C1q (human), 3.7 nM in test [2] and 0.12 nM in test [3].

The values above are taken from US20250230248A1.
